The record followed here is article PMC9372576, “Interaction of the gas vesicle proteins GvpA, GvpC, GvpN, and GvpO of Halobacterium salinarum” (Frontiers in Microbiology, 2022).

B2: GvpC C-terminal fragment Cterm (domain or fragment, Halobacterium salinarum, UniProt P24574 329-382, looked up)
chain: ETEEEAPEDMVQCRVCGEYYQAITEPHLQTHDMTIQEYRDEYGEDVPLRPDDKT
notes: GvpC of Halobacterium salinarum, aa 329-382, the globular C-terminal domain with a zinc-finger motif; GFP fragment at the N- or C-terminus; source: Hfx. volcanii WR340 transformant, split-GFP fusion in living cells
B5: GvpA fragment A1-43 (domain or fragment, Halobacterium salinarum, UniProt P08958 1-43, looked up)
chain: MAQPDSSGLAEVLDRVLDKGVVVDVWARVSLVGIEILTVEARV
notes: GvpA of Halobacterium salinarum, alpha1-beta1-beta2; vector described in earlier work; source: Hfx. volcanii WR340 transformant, split-GFP fusion in living cells
B6: GvpN fused to NGFP or CGFP (natural protein, Halobacterium salinarum, UniProt Q9HI16 1-347, looked up)
chain: MTNESRKRKVRGSQIRSSRGDKKQGRSQSRDDKEIERLERQNDARGQESSTHVDEGFVPEEQSFIETESVNRVESRMERWLDVGRPVHLIGPTGCGKTSLAMHVARERDRPVVWINGDAELTTSDLVGEYAEKERISEHDQFIHNVVKSKDIIRDRWVDNPLTLAVQEGATLVYNEFSRTKPVANNVLLSVFEEGVLELPGKRGKSRYVDVHPEFRTILTSNSVEYAGVHEPQDALLDRLIGIYMDFYDLDTEIEIVRAHVDKSADTNVEDIVRVLRELRERLDITVGTRAAIMANEGATTVDTVDQAVLTDICTDVLASKVAQRSDVRGLREEIESAIDDMEVALS
notes: GvpN of the p-vac region of Halobacterium salinarum; gvpN amplified from the p-vac region; GFP fragment at the N- or C-terminus, 14 or 16 aa linker; source: Hfx. volcanii WR340 transformant, split-GFP fusion in living cells
B9: GvpC fused to NGFP or CGFP (natural protein, Halobacterium salinarum, UniProt P24574 1-382, looked up)
chain: MSVTDKRDEMSTARDKFAESQQEFESYADEFAADITAKQDDVSDLVDAITDFQAEMTNTTDAFHTYGDEFAAEVDHLRADIDAQRDVIREMQDAFEAYADIFATDIADKQDIGNLLAAIEALRTEMNSTHGAFEAYADDFAADVAALRDISDLVAAIDDFQEEFIAVQDAFDNYAGDFDAEIDQLHAAIADQHDSFDATADAFAEYRDEFYRIEVEALLEAINDFQQDIGDFRAEFETTEDAFVAFARDFYGHEITAEEGAAEAEAEPVEADADVEAEAEVSPDEAGGESAGTEEEETEPAEVETAAPEVEGSPADTADEAEDTEAEEETEEEAPEDMVQCRVCGEYYQAITEPHLQTHDMTIQEYRDEYGEDVPLRPDDKT
notes: GvpC of the p-vac region of Halobacterium salinarum; gvpC amplified from the p-vac region; GFP fragment at the N- or C-terminus, 14 or 16 aa linker; source: Hfx. volcanii WR340 transformant, split-GFP fusion in living cells
B10: GvpA fragment A20-47 (domain or fragment, Halobacterium salinarum, UniProt P08958 20-47, looked up)
chain: GVVVDVWARVSLVGIEILTVEARVVAAS
notes: GvpA of Halobacterium salinarum, the two beta-sheets beta1-beta2; vector described in earlier work; source: Hfx. volcanii WR340 transformant, split-GFP fusion in living cells

Common to all, as to test: split reporter (BiFC, NanoBiT); split-GFP (NGFP and CGFP of salt-stable mGFP2) in Hfx. volcanii transformants, 24 h 37 °C then 24 h 30 °C; relative fluorescence (rf) against the wild type; the highest of eight tag combinations is given
The target of data set [1] is B2. The settings on record: partners not purified.
The target in data set [2] is B6. The settings on record: partners not purified.
In data set [3] the target is B9. As to conditions: partners not purified.
Data set [4] concerns the molecule itself.
Data set [5] concerns the target T1, GvpA fused to NGFP or CGFP (Halobacterium salinarum, UniProt P08958 1-76).
T1 construct: the entire GvpA of the p-vac region of Halobacterium salinarum; gvpA reading frame; NGFP (mGFP2 up to aa 157) or CGFP (from aa 158) at the N- or C-terminus through a 14 aa (pJAS) or 16 aa (pWLfdx) linker; with GvpF and its variants CGFP stood at the C-terminus of GvpA (AC); also called NA; AN; source: Hfx. volcanii WR340 transformant, split-GFP fusion in living cells
T1 sequence (looked up): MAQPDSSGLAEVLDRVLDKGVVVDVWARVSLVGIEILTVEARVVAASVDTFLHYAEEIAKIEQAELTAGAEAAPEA
The settings on record: partners not purified.

The data set “GvpA fragment A20-47” concerns the target B10. The settings on record: partners not purified.
For another data set, the target named is T2, GvpA fragment A44-76 (Halobacterium salinarum, UniProt P08958 44-76).
T2 construct: GvpA of Halobacterium salinarum, mainly helix alpha3; vector described in earlier work; source: Hfx. volcanii WR340 transformant, split-GFP fusion in living cells
T2 chain (looked up): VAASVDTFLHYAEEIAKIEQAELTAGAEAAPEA
The settings on record: partners not purified.

The data set “GvpA fragment A1-43” has as its target B5. The settings on record: partners not purified.

B1: GvpL fused to NGFP or CGFP (natural protein, Halobacterium salinarum, UniProt Q9HI27 1-281, looked up)
chain: MTDHRPSPEEEQTTANEERTVSNGRYLYCVVDTTSSESATLSTTGVDDNPVYVVEADGVGAVVHDCETVYETEDLEQVKRWLVTHQQVVDAASDAFGTPLPMRFDTVLEGGDASIERWLEDHYEGFRDELASFAGVWEYRINLLWDSAPFEETIADRDDRLRELRQRQQQSGAGKKFLLEKQSDQRLQELKRERRTELADQLKEAITPVVNDLTEQDTNTPLQDEHSSIEKEQIVRFAVLADEDDETALGDRLDTIVEHEGVEIRFTGPWPPYTFAPDIGK
notes: accessory gas vesicle protein GvpL of Halobacterium salinarum; construct of earlier work; source: Hfx. volcanii WR340 transformant, split-GFP fusion in living cells
As for B1, the “relative fluorescence (rf)” value in data set [1] is above 18 LAU/mm^2; in data set [2], 16.9 LAU/mm^2; in data set [3], 28.6 LAU/mm^2.

B2: the “relative fluorescence (rf)” value in data set [4] was 20.7 LAU/mm^2; in data set [5], below 2.5 LAU/mm^2.

B3: GvpK fused to NGFP or CGFP (natural protein)
chain: not shown
notes: accessory gas vesicle protein GvpK of Halobacterium salinarum; construct of earlier work; source: Hfx. volcanii WR340 transformant, split-GFP fusion in living cells
Consider B3, for which, in data set [2], the “relative fluorescence (rf)” value was below 5 LAU/mm^2.

B4: GvpA fragment A1-34 (domain or fragment, Halobacterium salinarum, UniProt P08958 1-34, looked up)
chain: MAQPDSSGLAEVLDRVLDKGVVVDVWARVSLVGI
notes: GvpA of Halobacterium salinarum, alpha1 plus beta-sheet 1; vector described in earlier work; source: Hfx. volcanii WR340 transformant, split-GFP fusion in living cells
For B4, the “relative fluorescence (rf)” value with GvpA fragment A20-47, with GvpA fragment A44-76 and with GvpA fragment A1-43 was at most 0.48 LAU/mm^2 in each case.

Take B5: the “relative fluorescence (rf)” value with GvpA fragment A20-47 and with GvpA fragment A44-76 was at most 0.48 LAU/mm^2 throughout.

For B6, the “relative fluorescence (rf)” value in data set [4] is above 10 LAU/mm^2.

B7: GvpJ fused to NGFP or CGFP (natural protein, Halobacterium salinarum, UniProt P24374 1-114, looked up)
chain: MSDPKPTRSQGDLAEMLEMLLDKGVVVNADIAVSVGDTELLGIELRAAIASFETAAEYGLEFPTGTDMERVESAANISPDQSDPASETQSETESTNPLSDDSTPTASTSAEETK
notes: accessory gas vesicle protein GvpJ of Halobacterium salinarum; construct of earlier work; source: Hfx. volcanii WR340 transformant, split-GFP fusion in living cells
For B7, in data set [2], the “relative fluorescence (rf)” value was below 5 LAU/mm^2.

B8: GvpF fused to NGFP or CGFP (natural protein, Halobacterium salinarum, UniProt Q9HI21 1-213, looked up)
chain: MTENLYTYGIIEQEDLELDVEGVAGAEQVYTVDYKTLSAVVSDIDTTDPERTDEDVEAHNNVLQEVLKHEEERTVVPMSFGMAFKSARTLKGVLRGARRALRSTLNDIEGTVELGVKILGPGDDTVPREEIQENVTDQLADLSINETENDLFTDRLIINKSYLVDFEKRDAFDSAIDDVEAEYDELTIQYTGPWPPYNFVDIHIGAEQQQGGR
notes: GvpF (wild type) of the p-vac region of Halobacterium salinarum; R213 is the very last aa; parent of the GvpF variants; also called Fwt; WT; source: Hfx. volcanii WR340 transformant, split-GFP fusion in living cells
In the case of B8, the “relative fluorescence (rf)” value is above 18 LAU/mm^2 in data set [1], below 5 LAU/mm^2 in data set [2], above 7.5 LAU/mm^2 in data set [3] and 18 LAU/mm^2 in data set [5].

Regarding B9, the “relative fluorescence (rf)” value in data set [4] came to 14.5 LAU/mm^2.

B10: the “relative fluorescence (rf)” value in the data set with GvpA fragment A44-76 was at most 0.48 LAU/mm^2.

B11: GvpG fused to NGFP or CGFP (natural protein, Halobacterium salinarum, UniProt P24371 1-83, looked up)
chain: MFIIDDLFVSPFFSLLDILQTMALDEMYDTKSIRDDIKENQLLYEVGERSDEEYQQRKQALESQLEMAEQVQEQMRDRMEVKK
notes: accessory gas vesicle protein GvpG of Halobacterium salinarum; construct of earlier work; source: Hfx. volcanii WR340 transformant, split-GFP fusion in living cells
Turning to B11, the “relative fluorescence (rf)” value in data set [2] was below 5 LAU/mm^2.

B12: GvpI fused to NGFP or CGFP (natural protein, Halobacterium salinarum, UniProt Q9HI24 1-144, looked up)
chain: MSDKQQQKHKQKARQARVKAQINRDKARRNLLRQREKLARRRTRNRKQSEPRRDDSDGDDTDGETVKNPAAHSTMPPQKSNAENAVRNSHSTVPKTPKYSDVTARERLYGQRLHQKTAGGNSEASAPSDESASGSPTEDEVNDE
notes: accessory gas vesicle protein GvpI of Halobacterium salinarum; construct of earlier work; source: Hfx. volcanii WR340 transformant, split-GFP fusion in living cells
For the molecule B12, the “relative fluorescence (rf)” value in data set [1] is above 18 LAU/mm^2; in data set [2], below 5 LAU/mm^2; in data set [3], above 7.5 LAU/mm^2.

B13: GvpM fused to NGFP or CGFP (natural protein, Halobacterium salinarum, UniProt P24377 1-84, looked up)
chain: MEPTKDETHAIVEFVDVLLRDGAVIQADVIVTVADIPLIGISLRAAIAGMTTMTEYGLFEEWDAAHRQQSEAFTTSPTADRRED
notes: accessory gas vesicle protein GvpM of Halobacterium salinarum; construct of earlier work; source: Hfx. volcanii WR340 transformant, split-GFP fusion in living cells
On to B13, for which the “relative fluorescence (rf)” value in data set [2] was below 5 LAU/mm^2.

B14: GvpH fused to NGFP or CGFP (natural protein, Halobacterium salinarum, UniProt P24372 1-182, looked up)
chain: MVPDENDDASDDQSSQLSGLLDQLHTLVEVLADIEEEGGHRHESGRIDRGNARIDYDYDVSIGLGRADGSSYDEEPSSNRSRSEQRSGQQRTTEDSIHVETRGGTSGDELVVVADLPGVTDDDVDVALDTDEQALTLRVDDDVVERVVLDRPDVAITDMTLRNQVLEIRLARTSDTDGGEST
notes: accessory gas vesicle protein GvpH of Halobacterium salinarum; construct of earlier work; source: Hfx. volcanii WR340 transformant, split-GFP fusion in living cells
For the molecule B14, the “relative fluorescence (rf)” value in data set [1] is 42.6 LAU/mm^2; in data set [2], below 5 LAU/mm^2; in data set [3], above 7.5 LAU/mm^2.
